For 1 substance, HT-29 % cell surface binding and PC3 % cell surface binding results are on record in US20120027773A1.

The target in experiment [1] is delta 160 RON variant (cell surface) (human) (UniProt Q04912). As to the kind of experiment: FACS, 10 ug/ml, HT-29 cells, 4 C; negative control. For orientation: Flow cytometry measures light scatter and fluorescence of single cells or particles in a stream.
The target in experiment [2] is human wild-type RON (cell surface) (human) (UniProt Q04912). As to the kind of experiment: FACS, 10 ug/ml, PC3 cells, 4 C; negative control.

For murine IgG control (antibody), the HT-29 % cell surface binding in experiment [1] was 5.62%. In experiment [2], this substance had a PC3 % cell surface binding of 5.5%.
